Experimental data published in patent US20250223339A1 (published 2025).
Positions count from the first letter of the chain named.

B1: ADI-75738 (antibody, V domains shown)
VH: QVQLQQWGAGLLKPSETLSLTCGVHDGAFSGYFWNWIRQSPVKGLEWIGEVTHSGNTNYNPSLKSRVTMSVDASKNEFSLNLTSVTAADTAVYYCARGDFYSTRLAFDVWGQGSMVTVSS
VL: EIVLTQSPATLSLSPGERATLSCRASQSVSTYLAWYQQRPGQAPRLLIYDASNRATGIPARFSGSGSETDFTLTISSLEPEDFAVYYCQQRSNWLTFGGGTKVEIK
B2: ADI-75700 (antibody, V domains shown)
VH: QVQLQQWGAGLLKPSETLSLTCGVYDGSFSDYFWNWIRQPPGKGLEWIGELTHTGSTNYNPSLKSRVTILADTSKSQFSLNLSSVTAADTAVYYCARGDFYSTRLAFDLWGQGTTVTVSS
VL: B1 VL with V3A, R39K, N53K, S63N, E68G, N93T, L95P, E104D
B3: ADI-75684 (antibody, V domains shown)
V domain 1: QVQLQESGPGLVKPSETLSLTCTVSGGSISSDHFYWGWIRQPPGKGLEWIGTTYYTARTNYNPSLKSRVTISVDTSKNQFSLKLTSVTATDTAIYYCARVEVSGGFSGYDFLTPYYFDYWGQGALVTVSS
V domain 2: not shown
B4: ADI-75859 (antibody, V domains shown)
VH: QVQLVQSGGGVGQPGRSLRLSCAASGFTFGHYGMHWVRQAPGKGLEWVAAIIYDGSDKQYADSVKGRFTISRDNSKNTVYLQMNSLRPEDTAIYFCAKLGGLYCSGGNCFSGYFDYWGQGTLVTVSS
VL: ETTLTQSPSSLSASVGDRVTITCRASQGISNSLAWYQQKPGKAPKLLLYAASTLESGVPSRFSGSGSGTDFTLTIASLQPEDFATYYCQQYYSSVRFTFGQGTILDLN
B5: ADI-75754 (antibody, V domains shown)
VH: QVQLVQSGGDLVQPGGSLRLSCVASGFTFSNYEMNWVRQGPGKGLEWISYISTSGSTYYYADSVKGRFTISRDNARNSLYLQMDSLRVEDTAIYYCLTHPQPQYVRPTQVVWFDPWGQGTLVTVSS
VL: EMTMTQSPGTLSLSPGERATLSCRASESVSSEYLAWHQQRPGQAPRLLIYGASSRPTGIPDRFSGSGSGTDFTLTISRLEPEDFAVYYCHQFASAPITFGQGTRLEIK

Key:
Experiment in all cases: BLI
[1] = biological target: recombinant SARS-CoV-2 Omicron BA.1 RBD
[2] = biological target: recombinant SARS-CoV-2 Delta RBD
[3] = biological target: recombinant SARS-CoV-2 Omicron BA.2 RBD
[4] = biological target: recombinant SARS-CoV-2 WT (Wuhan-1) RBD
[5] = biological target: recombinant SARS-CoV-2 Beta RBD
recombinant SARS-CoV RBD = recombinant SARS-CoV RBD (SARS-CoV, UniProt P59594 306-527)

Binder | Kd [1] [nM] | Kd [2] [nM] | Kd [3] [nM] | Kd [4] [nM] | Kd [5] [nM] | Kd (recombinant SARS-CoV RBD) [nM]
B1 | 2.77 | 1.53 | 1.59 | 0.26 | 0.56 | 150
B2 | 7.01 | 1.22 | 2.51 | 0.24 | 1.23 | 62.2
B3 | 1.35 | 1.89 | 18.4 | – | 1.05 | 2.59
B4 | 13.3 | 0.82 | 2.37 | 0.36 | 0.89 | 226
B5 | 37 | 3.45 | > 300 | 3.58 | 1.61 | 1.41
